Test results taken from patent US20250163181A1 (SAINT LOUIS UNIVERSITY, published 2025).
Each block holds one binder with its values, some of them ahead of it.

Experiments:
[1] = molecular target: T1, prothrombin variant S91A/Y93A (human, UniProt P00734 44-622, S91A; Y93A); experiment: SPR, POmAb immobilised on CM5, 1:1 model, 25 C; SPR, first set, 20 mM Tris pH 7.4, 25 C: weak binding with fast dissociation
T1 construct: range 1-579; Recombinant, expressed in Expi293 cells in the presence of vitamin K. Positions 91 and 93 count on the mature protein; also called ProTS91A/Y93A

plasminogen = plasminogen (UniProt P00747 20-810, limits assumed); experiment: ELISA, antigen coated on the plate, POmAb detected with anti-mouse IgG (gamma)-HRP and TMB, OD at 450 nm [panel C]
[2] = molecular target: tissue plasminogen activator (UniProt P00750 36-562); experiment: as above
β2-glycoprotein I = molecular target: T2, β2-glycoprotein I (UniProt P02749 20-345); experiment: as above
T2 construct: also called B2-glycoprotein I; β2GPI
T2 sequence (looked up): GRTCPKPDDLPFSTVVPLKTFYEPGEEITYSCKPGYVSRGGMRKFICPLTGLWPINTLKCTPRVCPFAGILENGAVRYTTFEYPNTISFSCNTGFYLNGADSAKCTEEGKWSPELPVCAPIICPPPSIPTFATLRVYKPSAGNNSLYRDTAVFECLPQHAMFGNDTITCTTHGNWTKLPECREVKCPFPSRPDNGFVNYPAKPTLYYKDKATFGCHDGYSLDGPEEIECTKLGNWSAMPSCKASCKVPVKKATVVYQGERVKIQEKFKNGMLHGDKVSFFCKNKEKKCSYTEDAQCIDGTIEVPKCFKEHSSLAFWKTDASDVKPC

[3] = molecular target: T3, kringle-2 of human prothrombin (amino acids 156-271) (human, UniProt P00734 199-314); experiment: as above
T3 construct: range 156-271; Numbers count on the mature protein

factor XII = molecular target: T4, factor XII (UniProt P00748 20-615); experiment: as above
T4 construct: also called FXII
T4 sequence (looked up): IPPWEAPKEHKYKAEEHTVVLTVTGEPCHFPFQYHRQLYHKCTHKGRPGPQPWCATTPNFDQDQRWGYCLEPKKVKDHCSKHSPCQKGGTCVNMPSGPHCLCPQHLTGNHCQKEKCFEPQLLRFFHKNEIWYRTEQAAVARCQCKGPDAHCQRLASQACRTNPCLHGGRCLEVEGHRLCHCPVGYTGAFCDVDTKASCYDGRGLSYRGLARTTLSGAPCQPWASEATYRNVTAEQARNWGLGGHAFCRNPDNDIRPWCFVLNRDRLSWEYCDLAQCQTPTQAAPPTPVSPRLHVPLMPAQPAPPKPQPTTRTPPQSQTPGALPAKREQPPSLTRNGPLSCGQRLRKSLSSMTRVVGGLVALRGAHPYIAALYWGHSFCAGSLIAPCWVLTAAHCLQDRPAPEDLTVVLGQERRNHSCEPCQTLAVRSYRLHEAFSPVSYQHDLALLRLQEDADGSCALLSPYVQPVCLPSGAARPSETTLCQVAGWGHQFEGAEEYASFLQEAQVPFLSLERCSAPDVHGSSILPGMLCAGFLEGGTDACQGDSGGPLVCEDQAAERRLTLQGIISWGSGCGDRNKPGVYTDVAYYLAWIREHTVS

[4] = molecular target: T5, human prothrombin wild-type (human, UniProt P00734 44-622); experiment: SPR, POmAb immobilised, second set; prothrombin with argatroban (open form)
T5 construct: range 1-579; Residue numbers count on the mature protein, not on the precursor entry; In some runs 200 uM argatroban was added to force the open form; also called coagulation factor II; PT

[5] = molecular target: T1, prothrombin variant S91A/Y93A; experiment: SPR, calculated from Kd; SPR, first set, Tris pH 7.4; ΔG calculated from Kd
[6] = molecular target: T1, prothrombin variant S91A/Y93A; experiment: ELISA, antigen immobilised, Hill fit
[7] = molecular target: T5, human prothrombin wild-type; experiment: ELISA, antigen immobilised, Hill fit
[8] = molecular target: T6, kringle-1 of human prothrombin (amino acids 44-155) (human, UniProt P00734 87-198); experiment: ELISA, antigen immobilised, Hill fit
T6 construct: Numbers count on the mature protein

[9] = molecular target: T1, prothrombin variant S91A/Y93A; experiment: SPR, POmAb immobilised
[10] = molecular target: T5, human prothrombin wild-type; experiment: SPR, calculated from Kd; prothrombin with 200 µM argatroban
[11] = molecular target: T5, human prothrombin wild-type; experiment: SPR, calculated from Kd
[12] = molecular target: T6, kringle-1 of human prothrombin (amino …); experiment: SPR, calculated from Kd
[13] = molecular target: T5, human prothrombin wild-type; experiment: SPR, POmAb immobilised on CM5, 1:1 model, 25 C
[14] = molecular target: T6, kringle-1 of human prothrombin (amino …); experiment: SPR, POmAb immobilised on CM5, 1:1 model, 25 C
[15] = molecular target: T1, prothrombin variant S91A/Y93A; experiment: SPR, POmAb immobilised, second set, HEPES buffer, 25 C; SPR, second set, 20 mM HEPES pH 7.4, 25 C: weak binding with fast dissociation
[16] = molecular target: T5, human prothrombin wild-type; experiment: SPR, second set, calculated from Kd; prothrombin with argatroban
[17] = molecular target: T1, prothrombin variant S91A/Y93A; experiment: SPR, POmAb immobilised, second set, HEPES buffer, 25 C
[18] = molecular target: T5, human prothrombin wild-type; experiment: as above
[19] = molecular target: T6, kringle-1 of human prothrombin (amino …); experiment: as above
[20] = molecular target: T1, prothrombin variant S91A/Y93A; experiment: SPR, second set, calculated from Kd
[21] = molecular target: T5, human prothrombin wild-type; experiment: SPR, second set, calculated from Kd
[22] = molecular target: T6, kringle-1 of human prothrombin (amino …); experiment: SPR, second set, calculated from Kd
[23] = molecular target: T5, human prothrombin wild-type; experiment: SPR, POmAb immobilised; prothrombin with 200 µM argatroban (open form)
[24] = molecular target: T3, kringle-2 of human prothrombin (amino …); experiment: ELISA, immobilised antigen, 5B10 titrated, OD at 450 nm [panel B]

Chain of tissue plasminogen activator (P00750 36-562): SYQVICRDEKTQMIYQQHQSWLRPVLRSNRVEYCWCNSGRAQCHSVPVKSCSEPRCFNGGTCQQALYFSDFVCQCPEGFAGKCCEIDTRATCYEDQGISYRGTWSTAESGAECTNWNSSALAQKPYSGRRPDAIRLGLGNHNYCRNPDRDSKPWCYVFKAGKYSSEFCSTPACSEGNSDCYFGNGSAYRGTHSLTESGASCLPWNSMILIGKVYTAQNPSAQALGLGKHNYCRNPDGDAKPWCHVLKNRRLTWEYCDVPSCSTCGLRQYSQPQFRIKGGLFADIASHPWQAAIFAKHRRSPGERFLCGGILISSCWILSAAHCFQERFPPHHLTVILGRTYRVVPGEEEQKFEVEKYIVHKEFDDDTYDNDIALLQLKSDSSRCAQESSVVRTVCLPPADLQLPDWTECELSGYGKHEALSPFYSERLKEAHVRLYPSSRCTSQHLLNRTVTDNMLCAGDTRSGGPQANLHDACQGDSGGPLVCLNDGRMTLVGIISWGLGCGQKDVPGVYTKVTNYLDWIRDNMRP
Chain of plasminogen (P00747 20-810 limits assumed): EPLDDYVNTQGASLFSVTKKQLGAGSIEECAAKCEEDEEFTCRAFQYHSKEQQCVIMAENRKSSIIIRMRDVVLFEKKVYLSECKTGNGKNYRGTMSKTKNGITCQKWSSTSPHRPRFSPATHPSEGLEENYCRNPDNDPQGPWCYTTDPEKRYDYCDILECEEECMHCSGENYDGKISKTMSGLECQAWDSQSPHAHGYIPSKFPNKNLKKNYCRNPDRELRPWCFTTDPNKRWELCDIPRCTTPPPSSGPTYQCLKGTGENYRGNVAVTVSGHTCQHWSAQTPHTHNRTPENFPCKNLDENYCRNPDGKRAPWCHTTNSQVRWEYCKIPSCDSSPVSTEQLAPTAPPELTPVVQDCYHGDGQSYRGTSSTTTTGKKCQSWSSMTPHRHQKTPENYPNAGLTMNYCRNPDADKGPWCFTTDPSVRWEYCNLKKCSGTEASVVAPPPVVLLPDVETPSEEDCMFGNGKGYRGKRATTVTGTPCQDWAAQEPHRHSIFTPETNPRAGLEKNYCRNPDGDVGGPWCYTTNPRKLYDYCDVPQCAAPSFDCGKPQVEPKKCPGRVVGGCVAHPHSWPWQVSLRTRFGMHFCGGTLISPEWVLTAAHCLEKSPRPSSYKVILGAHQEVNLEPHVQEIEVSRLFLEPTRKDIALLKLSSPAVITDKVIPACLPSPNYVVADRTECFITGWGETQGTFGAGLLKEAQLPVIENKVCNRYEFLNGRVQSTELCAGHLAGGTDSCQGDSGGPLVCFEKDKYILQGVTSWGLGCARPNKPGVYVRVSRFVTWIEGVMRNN

Kd [1]: 12000 nM | koff [1]: 0.29 s⁻¹ | kon [1]: 24200 M⁻¹ s⁻¹ | binding result (plasminogen): no binding (tested: 50 µg/ml) | binding result [2]: no binding (tested: 50 µg/ml) | binding result (β2-glycoprotein I): no binding (tested: 50 µg/ml) | binding result [3]: no binding | binding result (factor XII): no binding (tested: 50 µg/ml) | Kd [4]: 2.59 nM | koff [4]: 9.49e-05 s⁻¹ | kon [4]: 36600 M⁻¹ s⁻¹ | ΔG [5]: -6.7 kcal/mol | EC50 [6]: 0.301 µg/mL | EC50 [7]: 0.013 µg/mL | EC50 [8]: 0.02 µg/mL | fold change of dissociation rate against wild-type prothrombin [9]: ~1000 fold | ΔG [10]: -11.6 kcal/mol | ΔG [11]: -11.7 kcal/mol | ΔG [12]: -11.5 kcal/mol | Kd [13]: 2.5 nM | koff [13]: 0.00013 s⁻¹ | kon [13]: 52000 M⁻¹ s⁻¹ | Kd [14]: 3.7 nM | koff [14]: 0.00027 s⁻¹ | kon [14]: 69100 M⁻¹ s⁻¹ | koff [15]: 0.0702 s⁻¹ | kon [15]: 69600 M⁻¹ s⁻¹ | ΔG [16]: -11.7 kcal/mol | Kd [17]: 1010 nM | Kd [18]: 19.2 nM | koff [18]: 0.000122 s⁻¹ | kon [18]: 6350 M⁻¹ s⁻¹ | Kd [19]: 5.33 nM | koff [19]: 0.000314 s⁻¹ | kon [19]: 58900 M⁻¹ s⁻¹ | ΔG [20]: -8.2 kcal/mol | ΔG [21]: -10.5 kcal/mol | ΔG [22]: -11.3 kcal/mol | Kd [23]: 2.98 nM | koff [23]: 0.00012 s⁻¹ | kon [23]: 40300 M⁻¹ s⁻¹
B1: POmAb (Prothrombin Open monoclonal Antibody) (antibody, mouse IgG1, kappa, V domains shown)
VH: EVHLVESGGGLVKPGGSLKLSCAASGFTFSSYYMYWVRQTPEKRLEWVATISNGGIYTYYLDSVRGRFTISRDNAKNILYLQMSGLSSADSAIYYCTRDGERQGAMDYWGQGTSVTVSS
VL: QIVLTQSPAIMSVSLGERVTMTCIVSSSVSSTYLHWYQQKPGSSPKLWIYSSSNLASGVPTRFSGSGSGTSHSLTISSMEAEDAAAYYCQLYRRSPLTFGAGTKLELKR
notes: also called POmAb IgG; IgG POmAb

EC50 [6]: 0.038 µg/mL | EC50 [7]: 0.031 µg/mL | EC50 [8]: 0.038 µg/mL | binding result [24]: no binding
B2: 5B10 monoclonal antibody (antibody, V domains shown)
VH: QIQLVQSGPELKKPGETVKISCKASGYTFTNYGMNWVKQAPGKGLKWMGWINTYTGEPTYADDFKGRFAFSLETSASTAYLQINNLKNEDMATYFCARGGYYYGNNYEAYWGQGTLVTVSA
VL: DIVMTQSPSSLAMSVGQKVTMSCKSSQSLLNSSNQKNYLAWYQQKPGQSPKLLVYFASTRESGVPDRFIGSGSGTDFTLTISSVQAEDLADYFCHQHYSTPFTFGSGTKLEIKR
notes: also called clone 5B10
